In the assay the target is T1, recombinant RUVBL1-RUVBL2 complex (His_RUVBL1_Flag_RUVBL2) (human, UniProt Q9Y265 1-456; Q9Y230 1-463).
T1 construct: Purified predominantly as a dodecamer; hetero-hexamers and hetero-dodecamers in native MS; the SPR fit counts one hexamer; The methods tell different things of the RUVBL2 tag (N-terminal FLAG with TEV site; 3xFLAG in the NMR methods); also called RUVBL1/2; RUVBL1/2 hetero-multimers; source: E. coli (DE3), co-expressed, purified (HisTrap, anti-Flag M2 gel, Superdex S200, Superose 6); not shown: …
Kind of assay: SPR; RPAP3-Cter amine-coupled on CM5; RUVBL1-RUVBL2 complex injected, 10 concentrations up to 75.2 nM; 20 mM NaKPi pH 7.5, 150 mM NaCl, 5 mM MgCl2, 1 mM DTT, 0.05% P20; 25 °C; 1:1 Langmuir model counting one hexamer of RUVBL1/2; Biacore 4000. As to conditions: both partners purified.

This is an account of results in article PMC5974087, “The RPAP3-Cterminal domain identifies R2TP-like quaternary chaperones” (Nature Communications, 2018).

T1 sequence (Q9Y265 whole entry, chain 1 of 2): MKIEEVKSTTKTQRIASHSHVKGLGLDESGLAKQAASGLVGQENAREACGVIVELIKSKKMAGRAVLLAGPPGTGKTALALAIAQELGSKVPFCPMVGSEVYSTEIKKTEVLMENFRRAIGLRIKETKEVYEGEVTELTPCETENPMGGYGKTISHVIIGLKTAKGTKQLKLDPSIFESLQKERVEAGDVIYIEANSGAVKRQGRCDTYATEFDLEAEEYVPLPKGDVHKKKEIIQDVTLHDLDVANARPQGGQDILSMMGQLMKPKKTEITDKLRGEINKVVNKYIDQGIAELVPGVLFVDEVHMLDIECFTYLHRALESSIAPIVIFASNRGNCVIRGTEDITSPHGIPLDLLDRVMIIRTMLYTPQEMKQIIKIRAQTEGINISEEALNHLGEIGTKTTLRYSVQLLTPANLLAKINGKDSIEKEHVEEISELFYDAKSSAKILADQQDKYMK
T1 sequence (Q9Y230 whole entry, chain 2 of 2): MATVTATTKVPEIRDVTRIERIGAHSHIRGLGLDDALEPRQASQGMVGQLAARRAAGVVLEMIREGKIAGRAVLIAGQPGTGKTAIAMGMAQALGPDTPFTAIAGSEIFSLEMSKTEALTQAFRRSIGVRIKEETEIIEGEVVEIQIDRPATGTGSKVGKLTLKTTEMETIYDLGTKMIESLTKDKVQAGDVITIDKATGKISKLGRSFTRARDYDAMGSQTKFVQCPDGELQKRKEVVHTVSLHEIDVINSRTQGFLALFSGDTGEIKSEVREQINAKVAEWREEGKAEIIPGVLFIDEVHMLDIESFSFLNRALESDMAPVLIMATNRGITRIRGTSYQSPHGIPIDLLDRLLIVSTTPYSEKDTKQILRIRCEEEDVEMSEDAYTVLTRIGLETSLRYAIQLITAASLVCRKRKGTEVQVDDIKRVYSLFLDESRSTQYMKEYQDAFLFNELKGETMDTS

B1: RPAP3_(535-665), C-terminal domain of human RPAP3 (domain or fragment, UniProt Q9H6T3 535-665, looked up)
chain: AQFATTVLPPIPANSFQLESDFRQLKSSPDMLYQYLKQIEPSLYPKLFQKNLDPDVFNQIVKILHDFYIEKEKPLLIFEILQRLSELKRFDMAVMFMSETEKKIARALFNHIDKSGLKDSSVEELKKRYGG
modifications: 13C/15N isotope labelling in the NMR samples
notes: RPAP3, human, residues 535-665; numbering of isoform 1; Vector pnEA-3CH; also called RPAP3-Cter; RPAP3 C-terminal domain; source: E. coli (DE3) pRARE2, purified (TALON, HRV-3C cleavage, S75 size exclusion)
For orientation: Kd means the constant that tells how readily two partners part at equilibrium. In general, koff refers to a measure of how fast the partners let go of each other. The kon is the second-order rate constant of association. B1: the Kd turned out to be 4.18 nM, the koff is 0.00112 s⁻¹ and the kon was found to be 297000 M⁻¹ s⁻¹.
